US7193044B1, “Compounds and methods for regulating apoptosis, and methods of making and screening for compounds that regulate apoptosis” (Immunogen, Inc., priority 2000, dated 2007)

Experiments:
[1] = system: BAD phosphorylation in COS-7 cells; experiment: BAD phosphorylation in COS-7 cells (western blot band-shift); assay type: cell-based; conditions: anti-HA western blot
Source text: Mouse FL5.12 cells were then transfected with the expression vector encoding the shorter murine BAD of SEQ ID NO:3 or one of the three BAD mutants. Total mRNA was isolated from the transfected FL5.12 cells, and reverse transcribed into cDNA. The cDNA was then subcloned into the expression vector pcDNA3 so that the amino acid sequence of the BAD or mutant BAD, encoded by the subcloned cDNA, was in-frame and operably linked to an N-terminal hemagglutinin (“HA”) epitope encoded by the expression vector. The expression vectors encoding the HA-tagged shorter murine BAD and mutant BAD were expressed in COS-7 cells. Whole cell lysates (“WCL”) were then prepared from the COS-7 cells expressing the polypeptides. The phosphorylation of the shorter murine BAD of SEQ ID NO:3 and mutant BAD were detected by a western blot of the WCL, probed with an anti-HA antibody (“anti-HA antibody”). […] Of note, each of the BAD mutants resolved as a doublet on a 16% SDS-PAGE, even though in the amino acid sequence of each of the BAD mutants one or both of the serines corresponding to Ser112 and Ser136 were mutated, i.e., substituted with alanine. […]

[2] = system: HeLa cells; experiment: Beta-gal ELISA apoptosis assay in transfected HeLa cells; assay type: cell-based, human; conditions: HeLa cells, 24 hours post-transfection
Method: Because BAD Ser155 phosphorylation, like Ser136 phosphorylation, prevents BAD from binding to Bcl-XL (FIG. 1), it was possible that by analogy, Ser155 dephosphorylation promotes cell death. To test this idea, HeLa cells were co-transfected with BAD or various BAD serine mutants and a β-gal reporter plasmid. Twenty-four hours post-transfection, cell viability was analyzed by β-gal ELISA.
To test this idea, HeLa cells were again co-transfected with BAD or various BAD serine mutants and a β-gal reporter plasmid. Forskolin was then added to half of the cultures while the other half was left untreated. Beta-gal ELISAs were performed 24 hours post transfection. […] Thus, phosphorylation of Ser155 rescues cells from BAD-induced apoptosis, while substitution of Ser155 with a nonphosphorylatable residue results in increased cell death and the failure of cells to be protected from induced PKA activity.
Beta-gal ELISA assays were performed using the β-gal ELISA system from Boehringer Mannheim, according to manufacture's instructions. Cells were transfected with BAD (or BAD mutant) and β-gal in a ratio of 5:1. The transfected cells were trypsinized and distributed into 96-well tissue culture plates. Twenty-four hours after transfection, cell extracts were obtained by lysing the cells in lysis buffer. Cell extracts (200 μl) were then added to anti-β-gal-coated microtiter plates (MTP). The MTPs were foil-covered and incubated for one hour at 37° C. Solutions were then decanted and the MTPs were washed, followed by the addition of 200 μl of anti-β-gal-DIG working solution, and incubation for an additional hour as described above. Solutions were again decanted, the MTPs washed and 200 μl of DIG-POD working solution were added. The MTPs were incubated for another hour at 37° C., the solution decanted, and the wells washed. 200 μl of substrate with enhancer were added to each well and incubated at room temperature until color development. The β-gal activity was measured by the absorbance of the sample at […]. Data were based on triplicate wells with standard deviations calculated.

[3] = system: BAD Ser155 phosphorylation in HeLa cells; experiment: BAD phosphorylation in HeLa cells (western blot band-shift / anti-phospho-Ser155 antibody); assay type: cell-based, human; conditions: HeLa cells
Method: A mammalian expression vector encoding mutant HA-BAD S155A, derived from the shorter murine BAD of SEQ ID NO:3, was constructed. HA-BAD S155A has an amino acid sequence wherein the serine at a position corresponding to Ser155 is substituted with alanine. A western blot was performed on WCL prepared from cells expressing the shorter murine BAD (SEQ ID NO:3), HA-BAD S112A, HA-BAD S136A, or HA-BAD S155A, and probed with anti-HA antibody.
A western blot analysis, probed with anti-HA antibody, was performed on lysates produced from the Forskolin treated and untreated (control) cells to determine whether Forskolin could induce the phosphorylation BAD or mutant BAD.
HeLa cells transiently expressing HA-BAD, HA-BAD S155A, HA-BAD S112A/S136A, or HA-BAD S112A/S136A/S155A were treated with Forskolin or a buffer control.
The HA-BAD S112A/S136A double mutant was transiently expressed in HeLa cells, and transfected cell cultures were treated with each of the GPCR ligands, individually and as a group. A western blot analysis, probed with anti-HA antibody, was performed on lysates produced from the treated and untreated (negative control) cells. […] Forskolin (FK) and no treatment (−) were positive and negative controls, respectively (FIG. 6(a), […], respectively).
Non-transfected HeLa cells were treated with Forskolin or L-epinephrine, followed by western blot analysis of cell lysates using anti-BAD antibodies.
Transformants were treated with L-epinephrine, then lysed and subjected to anti-HA western blot analysis.
To further test whether phosphorylation of Ser155 is dependent on the PI 3-kinase/Akt pathway, HeLa cells were transfected with the mutant HA-BAD S155A and pretreated with Wortmannin, an inhibitor of PI 3-kinase. These cells were then stimulated with epidermal growth factor (EGF), lysed and analyzed by western blot analysis.
For immunoprecipitation of all HA-BAD species, 1 μg of the anti-HA antibody was added to the cell lysates, and incubated at 4° C. for one hour. Protein G agarose (Pierce) was then added (50 μl/fraction of 50% slurry) and followed by a one hour incubation at 4° C. Beads were washed with RIPA buffer, boiled in loading buffer (2% SDS, 10% glycerol, 5% β-ME, 60 mM Tris, pH 6.8, 0.002% Bromophenol Blue) and loaded onto polyacrylamide gels. After electrophoresis, proteins were transferred to nitrocellulose membranes, and blots blocked in western wash buffer (40 mM Tris, pH 8.0, 150 mM NaCl, 0.2% NP-40) with 5% BSA for one hour at room temperature. Blots were incubated with primary antibody diluted in western wash buffer with 3% BSA at room temperature for 1–2 hours, washed with western wash buffer and incubated with secondary HRP-coupled antibody diluted in western wash buffer with 1.5% BSA, and washed extensively. Polypeptides were detected with the ECL chemiluminescence according to the manufacturers instructions (Amersham).

[4] = system: HeLa cells; experiment: Fluorescence-based beta-galactosidase assay of BAD-induced cell death in transfected HeLa cells; parameters: species or system human; conditions: compared to wild-type BAD
Method: FIG. 12(B) is a graphic representation of the results of a β-galactosidase assay. HeLa cells were co-transfected with the β-galactosidase gene and either HA-BAD (“WT”), HA-BAD S155A (“S155A”), HA-BAD S112A/S136A (“S112A/S136A”) or HA-BAD S112A/S136A/S155A (“AAA”). Transfected cells were then cultured in serum-free medium (SFM) or SFM supplemented with EGF (SFM+EGF) for 12 hours. Cell lysates were prepared and BAD-induced cell death was measured by the loss of β-galactosidase activity in a fluorescence-based assay. Fluorescence was measured at 465 nm. Results shown are the average and standard deviation of triplicate transfections (this experiment was repeated two more times with similar results). Expression levels of HA-tagged BAD and BAD mutants in transfected cell lysates were detected by anti-HA western blot analysis: HA-BAD (“WT”), HA-BAD S155A (“A”), HA-BAD S112A/S136A (“AA”), and HA-BAD S112A/S136A/S155A (“AAA”).
FIG. 12(C) is a graphic representation of the results of a β-galactosidase assay. HeLa cells were co-transfected with the β-galactosidase gene and either an empty vector (“CTL”), wild-type BAD (“WT”), the BAD S155A mutant (“S155A”) or the BAD S155D mutant (“S155D”). Cell lysates were prepared and BAD-induced cell death was measured by the loss of β-galactosidase activity in a fluorescence-based assay. Fluorescence was measured at 465 nm. Results shown are the average and standard deviation of triplicate transfections (this experiment was repeated two more times with similar results).
HeLa cells were co-transfected with the β-galactosidase gene and either wild-type BAD, BAD S155A, BAD S112A/S136A or BAD S112A/S136A/S155A. […] Cell lysates were prepared and BAD-induced cell death was measured by the loss of β-galactosidase activity in a fluorescence-based assay. […]
To measure β-gal activity, HeLa cells were plated in 12-well plates at 5×10^4 cells/well one day prior to transfection. […] Beta-gal activity was measured in extracts using a fluorogenic substrate (MUG, BIO-RAD FluorAce™ β-gal Reporter Assay, #170–3150). […]

B1: HA-BAD S112A/S134A/S136A: HA-tagged mutant of shorter murine BAD, serines corresponding to Ser112, Ser134 and Ser136 substituted with alanine (protein, UniProt Q61337 1-204, looked up, variant S112A S134A S136A)
Bcl2-associated agonist of …: MGTPKQPSLAPAHALGLRKSDPGIRSLGSDAGGRRWRPAAQSMFQIPEFEPSEQEDASATDRGLGPSLTEDQPGPYLAPGLLGSNIHQQGRAATNSHHGGAGAMETRSRHSAYPAGTEEDEGMEEELSPFRGRARAAPPNLWAAQRYGRELRRMSDEFEGSFKGLPRPKSAGTATQMRQSAGWTRIIQSWWDRNLGKGGSTPSQ
modifications: HA tag
notes: HA-tagged mutant of shorter murine BAD, serines corresponding to Ser112, Ser134 and Ser136 substituted with alanine
phosphorylation of expressed BAD mutant (lambda phosphatase-sensitive higher molecular weight band) [1]: does not eliminate the phosphorylation of BAD

B2: BAD S136A: mutant of shorter murine BAD, serine corresponding to Ser136 substituted with alanine; HA- or GST-tagged (protein, UniProt Q61337 1-204, looked up, variant S136A)
Bcl2-associated agonist of …: MGTPKQPSLAPAHALGLRKSDPGIRSLGSDAGGRRWRPAAQSMFQIPEFEPSEQEDASATDRGLGPSLTEDQPGPYLAPGLLGSNIHQQGRAATNSHHGGAGAMETRSRHSSYPAGTEEDEGMEEELSPFRGRSRAAPPNLWAAQRYGRELRRMSDEFEGSFKGLPRPKSAGTATQMRQSAGWTRIIQSWWDRNLGKGGSTPSQ
modifications: HA or GST tag
notes: mutant of shorter murine BAD, serine corresponding to Ser136 substituted with alanine; HA- or GST-tagged
effect of expressed BAD mutant on cellular survival / cell death [2]: next greatest effect | band-shift (phosphorylation) of expressed BAD construct in response to L-epinephrine [3]: significant band-shift

B3: BAD S155D: BAD mutant, Ser155 replaced with aspartic acid to mimic the negatively charged phospho-Ser155 residue (protein, UniProt Q61337 1-204, looked up, variant S155D)
Bcl2-associated agonist of …: MGTPKQPSLAPAHALGLRKSDPGIRSLGSDAGGRRWRPAAQSMFQIPEFEPSEQEDASATDRGLGPSLTEDQPGPYLAPGLLGSNIHQQGRAATNSHHGGAGAMETRSRHSSYPAGTEEDEGMEEELSPFRGRSRSAPPNLWAAQRYGRELRRMDDEFEGSFKGLPRPKSAGTATQMRQSAGWTRIIQSWWDRNLGKGGSTPSQ
pro-apoptotic activity [4]: no pro-apoptotic activity
